In patent publication US20050158769:

Tests used:
[1] = test system: T1, MseI restriction endonuclease (R.MseI) (Micrococcus sp. NEB#446); assay: cleavage_in_vitro; conditions: NEBuffer 2 (50 mM NaCl, 10 mM MgCl2, 10 mM Tris-HCl, 1 mM DTT, pH 7.9) + BSA, 37 C; 1 unit digests 1 ug lambda DNA in 1 h
T1 sequence: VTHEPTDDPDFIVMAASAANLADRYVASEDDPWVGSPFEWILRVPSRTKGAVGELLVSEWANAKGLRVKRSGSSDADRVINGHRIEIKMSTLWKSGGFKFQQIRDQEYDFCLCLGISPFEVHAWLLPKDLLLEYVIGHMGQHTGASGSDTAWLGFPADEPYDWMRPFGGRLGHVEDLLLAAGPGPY

[2] = test system: T2, MseI restriction endonuclease (native) (Micrococcus sp. NEB#446); assay: cleavage_in_vitro; conditions: native enzyme; substrate inferred from the unit assay
T2 sequence: T1 sequence

Substance lambda DNA has an activity (units total purified) [1] of 2.6e+07 and an activity (units total purified (approx.)) [2] of 10000.
